Data as given in US20240124607A1 (Merck Sharp & Dohme, published 2024).

T1: hCEACAM5 A2-B2 domain (human, UniProt P06731 323-500, limits assumed)
T1 sequence: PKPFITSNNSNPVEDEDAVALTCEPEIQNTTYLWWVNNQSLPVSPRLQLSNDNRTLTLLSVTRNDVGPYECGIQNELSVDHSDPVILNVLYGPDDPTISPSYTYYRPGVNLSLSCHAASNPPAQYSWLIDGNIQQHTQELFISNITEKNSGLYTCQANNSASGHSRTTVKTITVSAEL

T2: hCEACAM5 A3-B3 domain (human, UniProt P06731 501-685, limits assumed)
T2 sequence: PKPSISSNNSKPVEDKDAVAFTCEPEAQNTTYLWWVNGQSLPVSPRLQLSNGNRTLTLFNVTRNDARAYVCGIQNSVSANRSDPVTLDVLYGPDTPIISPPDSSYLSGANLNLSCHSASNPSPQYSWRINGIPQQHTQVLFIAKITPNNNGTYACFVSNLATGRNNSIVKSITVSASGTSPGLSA

T3: Human CEACAM5 I80V V83A I112V I113T (human, UniProt P06731 35-685, limits assumed)
T3 chain: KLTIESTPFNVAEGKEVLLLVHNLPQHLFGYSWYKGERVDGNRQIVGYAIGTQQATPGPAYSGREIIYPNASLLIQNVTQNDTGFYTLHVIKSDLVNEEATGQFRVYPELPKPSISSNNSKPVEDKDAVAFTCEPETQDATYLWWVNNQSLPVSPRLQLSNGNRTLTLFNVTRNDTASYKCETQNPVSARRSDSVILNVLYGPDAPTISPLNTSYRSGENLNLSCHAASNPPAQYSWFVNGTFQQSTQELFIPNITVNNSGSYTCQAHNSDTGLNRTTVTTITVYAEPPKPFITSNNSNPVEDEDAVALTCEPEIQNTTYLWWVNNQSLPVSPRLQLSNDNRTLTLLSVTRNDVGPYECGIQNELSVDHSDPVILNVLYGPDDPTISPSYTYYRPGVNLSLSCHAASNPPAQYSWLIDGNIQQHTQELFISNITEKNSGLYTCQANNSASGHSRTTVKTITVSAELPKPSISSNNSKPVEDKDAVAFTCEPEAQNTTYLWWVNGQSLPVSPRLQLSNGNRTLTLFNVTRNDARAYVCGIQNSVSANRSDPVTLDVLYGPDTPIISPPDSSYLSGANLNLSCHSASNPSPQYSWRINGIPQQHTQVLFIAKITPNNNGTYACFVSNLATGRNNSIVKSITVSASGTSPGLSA

T4: Human CEACAM5 I112V (human, UniProt P06731 35-685, limits assumed)
T4 sequence: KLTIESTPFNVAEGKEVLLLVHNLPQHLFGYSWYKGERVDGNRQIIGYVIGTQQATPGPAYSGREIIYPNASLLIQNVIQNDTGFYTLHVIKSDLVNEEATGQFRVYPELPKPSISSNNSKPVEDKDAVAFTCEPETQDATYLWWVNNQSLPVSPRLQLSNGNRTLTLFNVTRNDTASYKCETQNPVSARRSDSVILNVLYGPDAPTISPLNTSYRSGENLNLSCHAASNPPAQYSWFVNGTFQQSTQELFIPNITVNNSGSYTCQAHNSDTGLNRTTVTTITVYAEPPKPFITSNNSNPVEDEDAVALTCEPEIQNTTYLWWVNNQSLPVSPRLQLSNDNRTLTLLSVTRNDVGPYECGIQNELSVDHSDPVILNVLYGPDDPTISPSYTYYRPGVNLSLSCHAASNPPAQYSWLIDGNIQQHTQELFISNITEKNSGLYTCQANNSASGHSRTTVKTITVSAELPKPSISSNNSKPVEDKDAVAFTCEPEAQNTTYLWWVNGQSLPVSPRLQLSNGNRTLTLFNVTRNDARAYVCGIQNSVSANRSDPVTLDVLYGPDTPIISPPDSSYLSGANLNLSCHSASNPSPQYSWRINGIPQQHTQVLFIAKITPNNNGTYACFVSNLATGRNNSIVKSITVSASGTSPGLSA


Key:
hCEACAM5 A2-B2 domain = target: T1, hCEACAM5 A2-B2 domain; assay: SPR with hCEACAM5 domains
Description: (§1) If the protein domain was an Fc fusion, AB0411, AB0466, AB0264, or AB0621 were captured using an anti-human Fab antibody (Cytiva, #28958325) immobilized onto a CM5 chip. The various hCEACAM5 protein domains (N-term, A1-B1, A2, B2, A3, or B3) were titrated over the captured TriNKETs at 50 μL/min for 180 sec of association and 300 sec of dissociation. The assay was run at 25° C. in HBS-EP+ running buffer, pH 7.4. The surface of the CM5 chip was regenerated using […] glycine pH 2.1.
(§2) The various hCEACAM5 protein domains were titrated over the captured antibody at 50 μL/min for 180 sec of association and 300 sec of dissociation. The assay was run at 37° C. in HBS-EP+ running buffer, pH 7.4. The surface of the CM5 chip was regenerated using 3M MgCl₂.

hCEACAM5 A3-B3 domain = target: T2, hCEACAM5 A3-B3 domain; assay: SPR with hCEACAM5 domains
Description: as §1, §2

[1] = target: T3, Human CEACAM5 I80V V83A I112V I113T; assay: SPR, 37C, pH 7.4; reference E398
Human CEACAM5 I112V = target: T4, Human CEACAM5 I112V; assay: SPR, 37C, pH 7.4; reference E398
[2] = target: T5, human CD16A (FcγRIIIA) V158 (human, UniProt P08637 17-208, limits assumed, biotinylated in the assay of Table 21); assay: SPR, biotin-CD16A on SA chip, 25C, pH 7.4
T5 construct: also called CD16A (V158/V176)
T5 sequence (P08637 17-208 F176V limits assumed): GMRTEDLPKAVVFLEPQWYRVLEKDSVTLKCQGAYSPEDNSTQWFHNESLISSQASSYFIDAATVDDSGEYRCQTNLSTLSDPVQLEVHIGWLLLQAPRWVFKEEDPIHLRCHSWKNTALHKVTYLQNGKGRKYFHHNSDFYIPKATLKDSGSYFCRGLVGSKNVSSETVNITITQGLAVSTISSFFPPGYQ
Description: (§3) Binding to human and cynomolgus CD16A was assessed using biotinylated CD16A captured on a streptavidin (SA) sensor chip (Cytiva, #BR100531). AB0411, AB0466, or AB0621 was titrated from 1500 nM at 25° C. at 30 μL/min for 150 sec association followed by 300 sec dissociation. The surface of the chip was regenerated with 2 mM sodium hydroxide for 5 sec at 30 μL/min. Running buffer was HBS-EP+. […] The V158 isoform bound ˜2- to 3-fold tighter than the F158 isoform as expected.

[3] = target: human CD16A (FcγRIIIA) F158 (human, UniProt P08637 17-208, limits assumed, biotinylated); assay: SPR, biotin-CD16A on SA chip, 25C, pH 7.4
human CD16A (FcγRIIIA) F158, sequence (P08637 17-208 limits assumed): as the sequence (P08637 17-208 F176V limits assumed) above, with V160F counted along it
Description: as §3

Cyno FcγRIIIA = target: T6, Cyno FcγRIIIA (cynomolgus monkey, UniProt Q8SPW2 17-208, limits assumed, biotinylated); assay: SPR, biotin-CD16A on SA chip, 25C, pH 7.4
T6 construct: also called cynomolgus CD16A
T6 sequence (Q8SPW2 17-208 limits assumed): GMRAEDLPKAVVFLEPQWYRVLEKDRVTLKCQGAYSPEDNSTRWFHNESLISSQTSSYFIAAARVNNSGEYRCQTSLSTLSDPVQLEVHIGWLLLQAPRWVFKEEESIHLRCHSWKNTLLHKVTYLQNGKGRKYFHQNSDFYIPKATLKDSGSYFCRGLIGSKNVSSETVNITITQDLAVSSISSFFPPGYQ
Description: as §3

Row | binding result (hCEACAM5 A2-B2 domain) | binding result (hCEACAM5 A3-B3 domain) | KD/KD(Ref) [1] [fold] | KD/KD(Ref) (Human CEACAM5 I112V) [fold] | Kd [2] [nM] | koff [2] [s⁻¹] | kon [2] [M⁻¹ s⁻¹] | Kd [3] [nM] | koff [3] [s⁻¹] | kon [3] [M⁻¹ s⁻¹] | Kd (Cyno FcγRIIIA) [nM] | koff (Cyno FcγRIIIA) [s⁻¹] | kon (Cyno FcγRIIIA) [M⁻¹ s⁻¹] | Binder
1 | no binding | no binding | 8.5 | 1.6 | 260 | 0.078 | 300000 | 690 | 0.21 | 310000 | 140 | 0.11 | 790000 | AB0466 F3' CEACAM5 TriNKET (bispecific antibody, human IgG1, kappa) not shown heavy: EVQLVESGGGLVKPGGSLRLSCAASGFTFSSYSMNWVRQAPGKGLEWVSSISSSSSYIYYADSVKGRFTISRDNAKNSLYLQMNSLRAEDTAVYYCARGAPIGAAAGWFDPWGQGTLVTVSSASTKGPSVFPLAPSSKSTSGGTAALGCLVKDYFPEPVTVSWNSGALTSGVHTFPAVLQSSGLYSLSSVVTVPSSSLGTQTYICNVNHKPSNTKVDKKVEPKSCDKTHTCPPCPAPELLGGPSVFLFPPKPKDTLMISRTPEVTCVVVDVSHEDPEVKFNWYVDGVEVHNAKTKPREEQYNSTYRVVSVLTVLHQDWLNGKEYKCKVSNKALPAPIEKTISKAKGQPREPQVCTLPPSRDELTENQVSLTCLVKGFYPSDIAVEWESNGQPENNYKTTPPVLDSDGSFFLYSWLTVDKSRWQQGNVFSCSVMHEALHNHYTQKSLSLSPG light: DIQMTQSPSSVSASVGDRVTITCRASQGISSWLAWYQQKPGKAPKLLIYAASSLQSGVPSRFSGSGSGTDFTLTISSLQPEDFATYYCQQGVSFPRTFGGGTKVEIKRTVAAPSVFIFPPSDEQLKSGTASVVCLLNNFYPREAKVQWKVDNALQSGNSQESVTEQDSKDSTYSLSSTLTLSKADYEKHKVYACEVTHQGLSSPVTKSFNRGEC
2 | no binding | no binding | 1.3 | 2.3 | 280 | 0.072 | 260000 | 640 | 0.19 | 300000 | 160 | 0.11 | 720000 | AB0621 F3' CEACAM5 TriNKET (bispecific antibody, human IgG1, kappa) DIVMTQSPDSLAVSLGERATINCKSSHSLLYGNFQNNYLAWYQQKPGQPPKLLIYWASTRESGVPDRFSGSGSGTDFTLTISSLQAEDVAVYYCQQYYSYPYTFGCGTKLEIKGGGGSGGGGSGGGGSGGGGSQVQLVQSGAEVKKPGASVKVSCKASGYTFTAYTIHWVRQAPGQCLEWMGYINPSSGYTEYNQKFKDRTTLTADTSISTAYMELSRLRSDDTAVYYCTREGGLLWFDYWGQGTLVTVSSGSDKTHTCPPCPAPELLGGPSVFLFPPKPKDTLMISRTPEVTCVVVDVSHEDPEVKFNWYVDGVEVHNAKTKPREEQYNSTYRVVSVLTVLHQDWLNGKEYKCKVSNKALPAPIEKTISKAKGQPREPRVYTLPPCRDELTKNQVSLTCLVKGFYPSDIAVEWESNGQPENNYKTTPPVLVSDGSFTLYSKLTVDKSRWQQGNVFSCSVMHEALHNHYTQKSLSLSPG heavy: EVQLVESGGGLVKPGGSLRLSCAASGFTFSSYSMNWVRQAPGKGLEWVSSISSSSSYIYYADSVKGRFTISRDNAKNSLYLQMNSLRAEDTAVYYCARGAPIGAAAGWFDPWGQGTLVTVSSASTKGPSVFPLAPSSKSTSGGTAALGCLVKDYFPEPVTVSWNSGALTSGVHTFPAVLQSSGLYSLSSVVTVPSSSLGTQTYICNVNHKPSNTKVDKKVEPKSCDKTHTCPPCPAPELLGGPSVFLFPPKPKDTLMISRTPEVTCVVVDVSHEDPEVKFNWYVDGVEVHNAKTKPREEQYNSTYRVVSVLTVLHQDWLNGKEYKCKVSNKALPAPIEKTISKAKGQPREPQVCTLPPSRDELTENQVSLTCLVKGFYPSDIAVEWESNGQPENNYKTTPPVLDSDGSFFLYSWLTVDKSRWQQGNVFSCSVMHEALHNHYTQKSLSLSPG light: DIQMTQSPSSVSASVGDRVTITCRASQGISSWLAWYQQKPGKAPKLLIYAASSLQSGVPSRFSGSGSGTDFTLTISSLQPEDFATYYCQQGVSFPRTFGGGTKVEIKRTVAAPSVFIFPPSDEQLKSGTASVVCLLNNFYPREAKVQWKVDNALQSGNSQESVTEQDSKDSTYSLSSTLTLSKADYEKHKVYACEVTHQGLSSPVTKSFNRGEC
3 | no binding | no binding | – | – | – | – | – | – | – | – | – | – | – | AB0264 F3' CEACAM5 TriNKET (bispecific antibody, human IgG1, kappa) DIVMTQSPDSLAVSLGERATINCKSSHSLLYGNFQNNYLAWYQQKPGQPPKLLIYWASTRESGVPDRFSGSGSGTDFTLTISSLQAEDVAVYYCQQYYSYPYTFGCGTKLEIKGGGGSGGGGSGGGGSGGGGSQVQLVQSGAEVKKPGASVKVSCKASGYTFTAYTIHWVRQAPGQCLEWMGYINPSSGYTEYNQKFKDRTTLTADTSIPTAYMELSRLRSDDTAVYYCTREGGLLWFDYWGQGTLVTVSSGSDKTHTCPPCPAPELLGGPSVFLFPPKPKDTLMISRTPEVTCVVVDVSHEDPEVKFNWYVDGVEVHNAKTKPREEQYNSTYRVVSVLTVLHQDWLNGKEYKCKVSNKALPAPIEKTISKAKGQPREPRVYTLPPCRDELTKNQVSLTCLVKGFYPSDIAVEWESNGQPENNYKTTPPVLVSDGSFTLYSKLTVDKSRWQQGNVFSCSVMHEALHNHYTQKSLSLSPG heavy: EVQLVESGGGLVKPGGSLRLSCAASGFTFSSYSMNWVRQAPGKGLEWVSSISSSSSYIYYADSVKGRFTISRDNAKNSLYLQMNSLRAEDTAVYYCARGAPIGAAAGWFDPWGQGTLVTVSSASTKGPSVFPLAPSSKSTSGGTAALGCLVKDYFPEPVTVSWNSGALTSGVHTFPAVLQSSGLYSLSSVVTVPSSSLGTQTYICNVNHKPSNTKVDKKVEPKSCDKTHTCPPCPAPELLGGPSVFLFPPKPKDTLMISRTPEVTCVVVDVSHEDPEVKFNWYVDGVEVHNAKTKPREEQYNSTYRVVSVLTVLHQDWLNGKEYKCKVSNKALPAPIEKTISKAKGQPREPQVCTLPPSRDELTENQVSLTCLVKGFYPSDIAVEWESNGQPENNYKTTPPVLDSDGSFFLYSWLTVDKSRWQQGNVFSCSVMHEALHNHYTQKSLSLSPG light: DIQMTQSPSSVSASVGDRVTITCRASQGISSWLAWYQQKPGKAPKLLIYAASSLQSGVPSRFSGSGSGTDFTLTISSLQPEDFATYYCQQGVSFPRTFGGGTKVEIKRTVAAPSVFIFPPSDEQLKSGTASVVCLLNNFYPREAKVQWKVDNALQSGNSQESVTEQDSKDSTYSLSSTLTLSKADYEKHKVYACEVTHQGLSSPVTKSFNRGEC
